This note sets out measurements from US20190263882A1.

Read-outs that look alike come from different tables or passages of the source.

The target of assay [1] is T1, relaxin receptor (LGR7).
T1 sequence (Q9HBX9 whole entry, species assumed, looked up): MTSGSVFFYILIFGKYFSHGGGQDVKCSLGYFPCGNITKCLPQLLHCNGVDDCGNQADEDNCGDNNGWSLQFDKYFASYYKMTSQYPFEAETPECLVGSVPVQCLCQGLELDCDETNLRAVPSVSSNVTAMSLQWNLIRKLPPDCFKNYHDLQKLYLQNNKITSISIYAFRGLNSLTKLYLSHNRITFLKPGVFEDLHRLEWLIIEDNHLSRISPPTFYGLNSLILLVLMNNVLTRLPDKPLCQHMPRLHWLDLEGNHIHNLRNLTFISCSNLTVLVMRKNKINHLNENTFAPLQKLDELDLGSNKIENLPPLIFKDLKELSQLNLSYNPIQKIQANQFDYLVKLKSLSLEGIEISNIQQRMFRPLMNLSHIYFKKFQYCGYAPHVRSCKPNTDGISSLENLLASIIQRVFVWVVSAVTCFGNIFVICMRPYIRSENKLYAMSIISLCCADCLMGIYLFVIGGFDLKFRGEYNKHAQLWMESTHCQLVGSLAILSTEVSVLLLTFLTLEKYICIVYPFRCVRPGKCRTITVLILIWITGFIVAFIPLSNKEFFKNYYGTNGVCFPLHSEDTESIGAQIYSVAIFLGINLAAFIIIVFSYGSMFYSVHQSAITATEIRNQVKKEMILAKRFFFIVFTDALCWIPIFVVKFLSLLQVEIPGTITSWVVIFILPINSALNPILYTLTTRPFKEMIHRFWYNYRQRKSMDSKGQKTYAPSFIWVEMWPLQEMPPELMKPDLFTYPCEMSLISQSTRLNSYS
The assay can be described thus: cell-based or functional assay.

The target of assay [2] is T2, hLGR7 (UL-hLGR7-Cre-Luc reporter cell line) (human ('hLGR7')) (UniProt Q9HBX9).
T2 sequence (looked up): T1 sequence (Q9HBX9 whole entry, species assumed, looked up)
The assay can be described thus: cell-based or functional assay.

In assay [3] the target is T1, relaxin receptor (LGR7). The assay can be described thus: cell-based or functional assay. The source holds these as a separate data set.
The next assay addresses RSV F protein (UniProt P03420). The assay can be described thus: ELISA, 100 ng/well RSV F protein coated, HRP anti-human IgG (Fc specific), QuantaBlu fluorescence (10 min). (In general: In an ELISA, binding on a coated surface is turned into a signal by an enzyme label.)

Chain of RSV F protein (P03420 26-524): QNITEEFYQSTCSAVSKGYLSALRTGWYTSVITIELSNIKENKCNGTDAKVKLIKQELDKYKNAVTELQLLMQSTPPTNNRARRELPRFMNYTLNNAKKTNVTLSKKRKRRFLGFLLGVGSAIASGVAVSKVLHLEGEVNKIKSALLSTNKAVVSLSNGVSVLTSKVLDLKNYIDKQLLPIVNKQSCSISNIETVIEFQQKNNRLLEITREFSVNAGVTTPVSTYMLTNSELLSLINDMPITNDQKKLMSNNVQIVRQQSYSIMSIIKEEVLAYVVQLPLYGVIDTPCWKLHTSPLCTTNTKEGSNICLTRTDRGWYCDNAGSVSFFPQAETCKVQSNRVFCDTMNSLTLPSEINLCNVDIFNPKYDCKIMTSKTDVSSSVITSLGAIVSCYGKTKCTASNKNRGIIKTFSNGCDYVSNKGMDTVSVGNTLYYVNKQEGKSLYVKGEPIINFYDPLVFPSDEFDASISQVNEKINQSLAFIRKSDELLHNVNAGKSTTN

Take “relaxin-2 peptide (from UniProt P04090 25-185) (ligand)”: the figures for the EC50, CRE-luciferase reporter assay in the assay with relaxin receptor (LGR7) [1] and with relaxin receptor (LGR7) [3] were 0.022 nM and 0.0223 nM, respectively. The EC50, UL-hLGR7-Cre-Luc reporter cell line in assay [2] amounted to 0.02 nM. Further, in assay [2], the SA worked out at 1000 units/µg.
As a reminder, the Kd is the free concentration of one partner at which half of the binding sites on the other are occupied at equilibrium, for simple one-to-one binding. Read a high Kd as weaker binding. In the assay with RSV F protein, Herceptin (antibody) showed a dissociation constant (Kd) of 1350 nM.
